Laboratory results taken from patent US5681819.

B1: isolated C-tail of human milk BAL (protein)
chain: ALPTVTDQEATPVPPTGDSEATPVPPTGDSETAPVPPTGDSGAPPVPPTGDSGAPPVPPTGDSGAPPVPPTGDSGAPPVPPTGDSGAPPVPPTGDSGAPPVPPTGDSGAPPVPPTGDAGPPPVPPTGDSGAPPVPPTGDSGAPPVTPTGDSETAPVPPTGDSGAPPVPPTGDSEAAPVPPTDDSK
modifications: about 8 to 10 O-linked oligosaccharides per C-tail molecule, most if not all on threonine (fucose, galactose, galactosamine, glucosamine)
B2: recombinant truncated form of bile salt-activated lipase (T-BAL, residues 1-538 lacking the carboxy terminal end) (enzyme)
chain: AKLGAVYTEGGFVEGVNKKLGLLGDSVDIFKGIPFAAPTKALENPQPHPGWQGTLKAKNFKKRCLQATITQDSTYGDEDCLYLNIWVPQGRKQVSRDLPVMIWIYGGAFLMGSGHGANFLNNYLYDGEEIATRGNVIVVTFNYRVGPLGFLSTGDANLPGNYGLRDQHMAIAWVKRNIAAFGGDPNNITLFGESAGGASVSLQTLSPYNKGLIRRAISQSGVALSPWVIQKNPLFWAKKVAEKVGCPVGDAARMAQCLKVTDPRALTLAYKVPLAGLEYPMLHYVGFVPVIDGDFIPADPINLYANAADIDYIAGTNNMDGHIFASIDMPAINKGNKKVTEEDFYKLVSEFTITKGLRGAKTTFDVYTESWAQDPSQENKKKTVVDFETDVLFLVPTEIALAQHRANAKSAKTYAYLFSHPSRMPVYPKWVGADHADDIQYVFGKPFATPTGYRPQDRTVSKAMIAYWTNFAKTGDPNMGDSAVPTHWEPYTTENSGYLEITKKMGSSSMKRSLRTNFLRYWTLTYLALPTVTDQEAT
modifications: not glycosylated (expressed in E. coli); 125I-labelled in the mouse intestine binding experiment
B3: native human milk bile salt-activated lipase (enzyme)
chain: AKLGAVYTEGGFVEGVNKKLGLLGDSVDIFKGIPFAAPTKALENPQPHPGWQGTLKAKNFKKRCLQATITQDSTYGDEDCLYLNIWVPQGRKQVSRDLPVMIWIYGGAFLMGSGHGANFLNNYLYDGEEIATRGNVIVVTFNYRVGPLGFLSTGDANLPGNYGLRDQHMAIAWVKRNIAAFGGDPNNITLFGESAGGASVSLQTLSPYNKGLIRRAISQSGVALSPWVIQKNPLFWAKKVAEKVGCPVGDAARMAQCLKVTDPRALTLAYKVPLAGLEYPMLHYVGFVPVIDGDFIPADPINLYANAADIDYIAGTNNMDGHIFASIDMPAINKGNKKVTEEDFYKLVSEFTITKGLRGAKTTFDVYTESWAQDPSQENKKKTVVDFETDVLFLVPTEIALAQHRANAKSAKTYAYLFSHPSRMPVYPKWVGADHADDIQYVFGKPFATPTGYRPQDRTVSKAMIAYWTNFAKTGDPNMGDSAVPTHWEPYTTENSGYLEITKKMGSSSMKRSLRTNFLRYWTLTYLALPTVTDQEATPVPPTGDSEATPVPPTGDSETAPVPPTGDSGAPPVPPTGDSGAPPVPPTGDSGAPPVPPTGDSGAPPVPPTGDSGAPPVPPTGDSGAPPVPPTGDSGAPPVPPTGDAGPPPVPPTGDSGAPPVPPTGDSGAPPVTPTGDSETAPVPPTGDSGAPPVPPTGDSEAAPVPPTDDSKEAQMPAVIRF
modifications: O-linked oligosaccharides in the C-tail, primarily on threonine; 125I-labelled in the mouse intestine binding experiment

Tests used:
[1] = molecular target: receptor on the rat intestine surface that binds the C-tail of BAL (CT-receptors)
[2] = molecular target: receptor on the rat intestine surface that binds the C-tail of BAL (CT-receptors); remark: listed apart in the source
[3] = molecular target: receptor on the rat intestine surface that binds the C-tail of BAL (CT-receptors); remark: listed apart in the source
[4] = molecular target: receptor on the mouse small intestine surface that binds the C-tail of BAL (CT receptor); test: 125I-labelled protein retained in ligated mouse small intestine segments after washing; mean of 3 experiments

| Molecule | cholesterol uptake of rat intestine after removal of bound BAL with EGTA [1] | cholesterol uptake of rat intestine segments from 3H cholesterol oleate [2] | Cholesterol Uptake [3] [nmol/g/h] | Bound [4] [ng/cm] |
| --- | --- | --- | --- | --- |
| rat endogenous intestinal BAL (from UniProt P07882) (enzyme) | 16 % of control |  |  |  |
| B1 |  | 10 % of control |  |  |
| B2 |  |  | 7.32 | 33 |
| B3 |  |  | 14.4 | 384 |
